Test results as given in article PMC2860377.

Tested on: CSCC[C@H](N)C(=O)Nc1ccc2c(C)cc(=O)oc2c1
Experiment: purified protein
Settings: Fe(II) form, 10 μM FeCl2

In the case of “MtMetAP1a (Mycobacterium tuberculosis H37Rv)”, the Km was 161 µM.
